# Source: the nanobody polyreactivity screen of Harvey et al. (2022)
# Experiment: yeast display, Sf9 membrane polyspecificity reagent, FACS + sequencing; frameworks hold sequencing errors
# How it was run: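 A nanobody's polyreactivity label depends on the gate it was sorted from. Yeast display cells were stained with 10% biotinylated, detergent-solubilized Sf9 membrane reagent for 1 hour at 4 °C, enriched on streptavidin microbeads and sorted by FACS. The low and high (top ~1%) gates were set on anti-HA fluorescence for expression and streptavidin fluorescence for reagent binding.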
row,Sequence,polyreactivity (PSR sort gate)
1,QVQLVESGGGLVQARGSLRLSCAASGSIFAYNAMGWYRQAPGKERELVARISNRSGRTYYADSVKGRFTISRDNAKNTVYLLMNSLKPEDTAVYYCGVVAGLGTYRRYGYCGQGTQVTVSS,high polyreactivity
2,QVQLVESGGGLVQARGSLRLSCAASGSIFINNTRGWYRQAPGIEREWVAAISITGGSTYYADSVKGRFTISRDNAKNSVYLQMNSLKPEDTAVDYCAADPLQLYDYNYWGQGTQVTVSS,low polyreactivity
3,QVQLVESGGGLVQARGSLRLSCAASGSIFYGNTMGWYRQAPGKESEFVAAISYGGGGTYYADSVKGRFTISRDNAKNTVYLQMNILKPEDTAVYYCATDDPLYQINEQGMDYWGLGTQVTVSS,low polyreactivity
4,QVQLVESGGGLVQARGSLRLSCAASGSTFHQYVMGWYRQAPGKESELVAAINSSGSSTYYADSVKGRFTISRDNAKNTVDLQMNSLKPEDTAVYYCARDGLRNPGGYGFWGQGTQVTVSS,low polyreactivity
5,QVQLVESGGGLVQARGSLRLSCAASGSTFPYVMGWYRQAPWKERELVAAISQRTGSTYYADSVKGRFTISRDNAKNTVYLQMNSLNPEDTAVYYCAKPGYLRPSRYDYWGQGTQVTVSS,high polyreactivity
6,QVQLVESGGGLVQARGSLRLSCAASGSTFRFNAMGRYRQAPGKEREFVAAIRFTGGSTYYADSVKGRFTISRDYAKNTVYLQMNSLKPEDTAVYYCNNADEYSNVEYDYWGQGTQVTVSS,low polyreactivity
7,QVQLVESGGGLVQARGSLRLSCAASGSTFYYNTMGWYRQAPGKERELVAAITSSGGRTYYADSVKGRFTISRDNAKNTVYLQMNSLKPEDTAVYYCAAKRVGSTANRRVTKYDWGQGTQVTVSS,high polyreactivity
8,QVQLVESGGGLVQARGSLRLSCAASGTIFASNAMGWLRKAPGKVRELVAAINSGGNTYADSVKGRFTITRDNAKNTVYVHMNSLKPEDTAVYYCAVVWNWCSGLSPGYPEFDYWGQGTQVTVSA,low polyreactivity
9,QVQLVESGGGLVQARGSLRLSCAASVGTFGSNNMGCYRQAPGKDRELVAAITSGVSTNYADSVKGRFTITRYIAKNTVYLQMNSLKPEDTAVNYSAAGTQAHAYVVRPIEMDYWGQGTQVTVSS,low polyreactivity
10,QVQLVESGGGLVQARGSLRLSCAASVRTICNNAMGWYREAPGKERELVAANTSTASRTYYADSEKGRFTISRDNAKNTVYLQMNSLKPEDTAVYYCNRVSHLDYYWGQGTQVTVSS,high polyreactivity
11,QVQLVESGGGLVQARGSLRLSCASSGITLYFNTMGCYRQPPGKESELVASISGGSSTYYADSVKGRFTISRDNAKNTVYLQMNSLKPEDTAVYYCNAQGSLFRGWFDYDYWGLGTQVTVSS,low polyreactivity
12,QVQLVESGGGLVQARGSLRLSCASSGSTFGGYAMGWYRQAPGKERELVPAITRSGGSTYYADSVKGRFTISRDNGKNTVYLQMNSLKPEDTAVYYCAARVPRGDRPGYHYAYYYWGQGTQVTVSS,high polyreactivity
13,QVQLVESGGGLVQASGSLRLSCAASGFTFSQYDMGWNRQDHGKERELVAAISWNGGSTYYAESVKGRFTISRDNAKNTVYLQMNSLKPDDTAVYYCNRRWPFVRFYYWGQGTQVTVSS,high polyreactivity
14,QVQLVESGGGLVQAVCSLRLSCAASGRTFHGNAMGWYRQAPGKERELVAAISYSGGRTYYADSVKGRFTISRDNAKNTVYLQMNSLKPEDTAVYYCAAWGSSYSFDYWGQGTQVTVSS,high polyreactivity
15,QVQLVESGGGLVQAVGGLRLSCAASGSTFKRNTMGSYRQAPGKEMELVAAISRSGGSTYYADSVKGRFTISRDNAKNTVYLQMNSLKPEDTAVYYCNAYVSSYVGSRSYGLSPYDYWGQGTQVTVSS,high polyreactivity
16,QVQLVESGGGLVQAVGRLRLSCAASGSNFQYYAMGWYRQAPGKERELVAAISSSGTGTSYADSVKGRFTISRDNAKNTVYLQMNSLKPEDTGVYYCAADYRDYPDSAYYYWGQGTQVTVSS,low polyreactivity
17,QVQLVESGGGLVQAVGSLRLSCAASGLIFWRNAMGWYRQAPGKERELVAAITYSGSRTYYADSVKGRFTISRDNAKNTVYLQMNSLKPEDTAVYYCNADYYWYPYEDDDWGQGTQVTVSS,low polyreactivity
18,QVQLVESGGGLVQAVGSLRLSCAASGLTFYSNAMGWYRQAPGTERELVATISQDGGRTYADSVKGLFTISRDNAKNTVYFQMNSLKPEDTAVYYCAADYSGNYDFGYWGQGNQVTVSS,low polyreactivity
19,QVQLVESGGGLVQAVGSLRLSCAASGRTFGNYAMGWYRQAPGKERELVAAISRSGASTYYADSVKGRFTISRDNAKNSVYLQMNSLKPEDTAVYYCAARVLKPFKYGYWGQGTQVTVSS,high polyreactivity
20,QVQLVESGGGLVQAVGSLRLSCAASGRTFNSYTMGWYRQAPGKERELVAAISSGGSTTYADSVKGRFTISRDNAKNTVYLQMNSLKPEDTAVYYCAAGLVYRGYRRDYWGQGTQVTVSS,low polyreactivity
21,QVQLVESGGGLVQAVGSLRLSCAASGRTFYRYAMGWYRQAPGKERELVASITRRGGNTYYADSVKGRFTISRDNAKNTVYLQMNSLKPEDTAVYYCAAQSLHPGNWGQGTQVTVSS,high polyreactivity
22,QVQLVESGGGLVQAVGSLRLSCAASGSTLSANAMGWYRQAPGKEWELVAAISWNGGCTYYADSVKGRFTISRDNAKNTVYLQMNSLKPEDTAVYYCAAEYIVTYEYWYFGYDYWGQGTQVTVSS,low polyreactivity

row,Sequence,polyreactivity (PSR sort gate)
1,QVQLVESGGGLVQAVGSLRLSCAASGSTLYRYALGWYRQAPGKARELDAAISSSGGSTYYADSVKGRFTISRDNAKNTVYLQMNSLKPEDTEVYYCARVARASGVRWYYYWGQGTQVTVSS,high polyreactivity
2,QVQLVESGGGLVQAVGSLRLSCAASVFIFPYYDMGWYRQAPGKEREFVAAITKSGGRTYYADSVKGRFTISRDNAKNTVYLHMNSLKPEDTAVYYCNADDPDYLVSYRYDYWGLGTQVTVSS,low polyreactivity
3,QVQLVESGGGLVQAVGSLRLSCASSGYTFDYYTMGWYRQAPGKERELVARITASGGSTYYADSVKGRFTISRDNAKNTVYLQMNSLKPEDTAVYYCAKAWYRYSRFDYWGQGTQVTVSS,high polyreactivity
4,QVQLVESGGGLVQAVGTLRLSCAASGSIFGYNAMGWYRHAPAKEREFVAAIRWSSGSTYYADSVKGRFTISRDNAMNTVFLQMNSLKPEDTAVNYCATRQTYLYWGQGTQVTVSS,high polyreactivity
5,QVQLVESGGGLVQAVGTLRLTCAASGITFNVNAMGWYRQEPGKERELVARITTSGGSTSYADSVKGRFTISRDNAYNTVYLQMNSLKPEDTAVYYCAADRARYFSEYDYWGQGTQVTVSS,low polyreactivity
6,QVQLVESGGGLVQAVVSLRLSCADTGFTFRRYAMGWDRQAPGKERELVAVITTAGSTNYADSVKGRFTISRDNAKNTVYLKMNSLKPEDTAVYYCATDNGTRKRRYDYWGQGTQVTVSS,low polyreactivity
7,QVQLVESGGGLVQEGCSLRLICAASGSIFGYYAMGWYRQAPGKERELVAAISTAGSTNYADSVKGRFTISRDNAKNTVYLQMNSLKPEDTAVYYCAKKSSWYYPERFDYWGQGTQVTVSS,low polyreactivity
8,QVQLVESGGGLVQEGDSLRLSCAASGIIFLWYTLGLYRPAPGKERELVATISWGGGSTYADSVKGRFTISRDNAKNTVYLQMNSLKPEDTAVYYCAADNRYFRGQAYDYWGQGTQVTVSS,low polyreactivity
9,QVQLVESGGGLVQEGGSLHLICAASGRIFGKYPMGWYRQAPGKEREFVAAIRSSDGNTYYADSVKGRFTISRDNAKNTVYLQMNSLKPDDTAVYYCNAGRVTRRDTFDYWGQGTQVTVSS,high polyreactivity
10,QVQLVESGGGLVQEGGSLRFSCAASGFTFDHYAMGWNRQAPGKERELVAVITKSGDSTYYADSVKGRFTISRDNAKNTVYLQMNSQKPEDPAVYYCNARRDYDMDWGQGTQVTVSS,high polyreactivity
11,QVQLVESGGGLVQEGGSLRISCAASGFSYENNAMGRYRQAPGKERERVAGITSGGGSTYYADSVKGRFTISRDNAKNTVYLQMNSLKPEDTAVYYCNKMYTRVGFTFEYWGQGTQVTVSS,low polyreactivity
12,QVQLVESGGGLVQEGGSLRLICAASGRIFGDYGMGWYRQAPGKERELVAAITDRGGTTYYADSVKGRFTISRDNAKNTVYLQMNSLNPEDTAVYYCNARQSDIFDYDYWGQGTQVTVSS,low polyreactivity
13,QVQLVESGGGLVQEGGSLRLICAASGRTLNSYDMGWYRQEPGKERELVAAISWSGTNTYYSDSVKGRFTISRDNAKNTVYLQMNCLKPEDTAVYYCNAVTKATRYEYWGQGTQVTVSS,high polyreactivity
14,QVQLVESGGGLVQEGGSLRLICAASGSIFWLYAMGWYRQAPGKERELVAAIDSGDSTKYADSVKGRFTISRDNAKYTVYLQMNSLKPEDTAVYYCNASRRYHVRAPYDYWGQGTQVTVSS,low polyreactivity
15,QVQLVESGGGLVQEGGSLRLICEASGFIFYNYAMGWYRQAPGKERELVAAISSSGGRTYYADSVKGRFTISRDNAKNTVYLQMNRLKREDTAVYYCNARVNYKGYDYWGQGTQVTVSS,high polyreactivity
16,QVQLVESGGGLVQEGGSLRLSCAASGFIFKHYAMGWYRQAPGKEMELVAAISGGGSTNYADSVKGRFTISRDNAKNTVYLQMNSLKPEDSAVYYCAARSRSLGYGYWGQGTHVTVSS,low polyreactivity
17,QVQLVESGGGLVQEGGSLRLSCAASGFISGFYGMGWYRQAPRKEREFVAAIEFIDGDTYYADSVKGRFTISRDNAKNTVYLQMNSLKPEDTAVYYCAADGSFWQFDYWGQGTQVTVSS,low polyreactivity
18,QVQLVESGGGLVQEGGSLRLSCAASGFTFAQYALGWYRQAPGNERELVAAISRRGGRTYYADSVTGRFTISRDIAKNTVYLQMTSLKPEDSAVSYCAADGGYQDDYDYWGQGTQVTVSS,high polyreactivity
19,QVQLVESGGGLVQEGGSLRLSCAASGFTFNNYAMGWYRQAPGKERELVAAISSVGRTYYAYSVKGRFTISRDNAKNTVYLQMISLKPEDTAVYYCNRRWYTHWGQGTQVTVSS,high polyreactivity
20,QVQLVESGGGLVQEGGSLRLSCAASGIIFLDNAMGWYRQAPGKERELVAAITTGGITYYADSVKGRFTISRDNAKNTVYLQMNSLKPEDTAVYYCATDPVNSGYQRYYYWGQGTQVTVSS,low polyreactivity
21,QVQLVESGGGLVQEGGSLRLSCAASGLIFRYYGMGWYRQAPGKERELVAAIRWSAGSTYYADSVKGRFTNSRDYAKITVYFQMNSLKPEDTAVYYCAVAIGYVYKPYYYWGQGTQVTVSS,high polyreactivity
